The source of these data is patent US20260015426A1 (23ANDME, published 2026).

For experiment [1], the target named is T1, hu-M-IL1RAP construct, positions S21-T367 (extracellular domain of the membrane form of human IL1RAP) (human, UniProt Q9NPH3 21-367).
T1 construct: Biotinylated when captured on the Biacore chip
T1 sequence: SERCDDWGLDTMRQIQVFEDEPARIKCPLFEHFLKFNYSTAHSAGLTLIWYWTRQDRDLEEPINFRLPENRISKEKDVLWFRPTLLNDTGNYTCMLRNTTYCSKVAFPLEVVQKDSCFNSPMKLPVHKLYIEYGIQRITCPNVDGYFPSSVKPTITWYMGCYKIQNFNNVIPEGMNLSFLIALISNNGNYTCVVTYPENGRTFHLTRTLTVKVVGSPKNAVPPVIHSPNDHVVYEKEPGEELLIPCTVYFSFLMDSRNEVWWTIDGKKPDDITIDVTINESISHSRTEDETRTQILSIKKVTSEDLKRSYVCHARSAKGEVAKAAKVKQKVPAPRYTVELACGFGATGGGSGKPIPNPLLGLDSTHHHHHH
Put plainly: SPR, 37 C. (In general: SPR reads the build-up and loss of mass on a sensor chip optically.)
Description: (§1) Surface plasmon resonance (SPR) analysis was used to determine binding affinity for hu-M-IL1RAP of the purified Fabs containing the selected single, double, and triple mutations in either the VL or VH regions using a BIACORE™ 8K instrument. […] For kinetics measurements, 5 nM biotinylated hu-M-IL1RAP was captured at 10 μL/min to achieve ˜50 response units in the second flow cell (FC2). FC1 was kept as a reference. […] The sensorgrams were recorded and subjected to reference and buffer subtraction before data analysis with the BIACORE® 8K Evaluation Software (version 1.1.1.7442). Association rates (kₒₙ) and dissociation rates (koff) were calculated using a simple one-to-one Langmuir binding model. The equilibrium dissociation constant (KD) was calculated as the ratio of koff/kₒₙ.

Experiment [2] deals with T2, cyno-M-IL1RAP construct, positions S21-T367 (cynomolgus monkey, UniProt P59822 21-367 (rhesus entry)).
T2 construct: Biotinylated when captured on the Biacore chip; also called cy-M-IL1RAP
T2 sequence: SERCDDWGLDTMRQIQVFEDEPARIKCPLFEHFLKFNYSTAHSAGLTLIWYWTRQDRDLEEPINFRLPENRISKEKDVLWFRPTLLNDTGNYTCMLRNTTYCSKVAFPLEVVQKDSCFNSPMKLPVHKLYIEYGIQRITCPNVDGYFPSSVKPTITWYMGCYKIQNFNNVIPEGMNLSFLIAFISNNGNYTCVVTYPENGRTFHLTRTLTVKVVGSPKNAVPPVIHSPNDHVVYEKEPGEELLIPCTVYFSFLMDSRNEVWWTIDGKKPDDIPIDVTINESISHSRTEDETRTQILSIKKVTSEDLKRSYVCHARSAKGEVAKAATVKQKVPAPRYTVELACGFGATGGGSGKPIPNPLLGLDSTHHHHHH
Put plainly: SPR, 37 C.
Description: as §1

Experiment [3] addresses T3, human IL1RAP (hu-IL1RAP) on human cells (human, UniProt Q9NPH3 21-570).
T3 sequence: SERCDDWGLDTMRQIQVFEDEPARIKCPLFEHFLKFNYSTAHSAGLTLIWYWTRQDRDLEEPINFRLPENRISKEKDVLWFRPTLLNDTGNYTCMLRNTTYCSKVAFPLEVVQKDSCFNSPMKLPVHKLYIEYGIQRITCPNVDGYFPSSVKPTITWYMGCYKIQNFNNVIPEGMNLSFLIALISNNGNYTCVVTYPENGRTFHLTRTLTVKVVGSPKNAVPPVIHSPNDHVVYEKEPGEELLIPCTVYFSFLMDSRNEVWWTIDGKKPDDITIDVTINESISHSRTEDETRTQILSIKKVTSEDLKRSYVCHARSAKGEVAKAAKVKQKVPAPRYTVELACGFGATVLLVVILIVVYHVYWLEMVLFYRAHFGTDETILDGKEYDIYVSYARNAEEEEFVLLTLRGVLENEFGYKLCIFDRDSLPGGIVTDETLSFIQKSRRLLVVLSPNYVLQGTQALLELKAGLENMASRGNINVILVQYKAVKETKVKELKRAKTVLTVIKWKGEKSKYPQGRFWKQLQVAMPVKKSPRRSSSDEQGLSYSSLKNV
Kind of experiment: cell-based or functional assay.

In experiment [4] the target is T1, hu-M-IL1RAP construct, positions …. Kind of experiment: SPR, IgG analyte (apparent), 37 C, pH 6.
Description: as §1
Experiment [5] deals with T2, cyno-M-IL1RAP construct, positions …. Put plainly: SPR, IgG analyte (apparent), 37 C, pH 6.
Description: as §1
The target in experiment [6] is T1, hu-M-IL1RAP construct, positions …. Put plainly: SPR, IgG analyte (apparent), 37 C, pH 7.4.
Description: as §1
In experiment [7] the target is T2, cyno-M-IL1RAP construct, positions …. Put plainly: SPR, IgG analyte (apparent), 37 C, pH 7.4.
Description: as §1
The target in experiment [8] is T1, hu-M-IL1RAP construct, positions …. Kind of experiment: SPR, IgG analyte (apparent), pH 7.4, 37 C.
Experiment [9] concerns the target T2, cyno-M-IL1RAP construct, positions …. Put plainly: SPR, IgG analyte (apparent), pH 7.4, 37 C.
Experiment [10] addresses T3, human IL1RAP (hu-IL1RAP) on human cells. Kind of experiment: cell-based or functional assay. This is another data set of the same source.
Experiment [11] has as its target T1, hu-M-IL1RAP construct, positions …. Put plainly: BLI (OCTET), mAb captured, 25 C.
Description: All samples were placed in black 96-well plates and the experiment was performed at 25° C. […] The biosensors were equilibrated in experimental buffer at 25° C. for ten minutes prior to starting the experiment.
The resulting BLI signal from analyte association and dissociation from the immobilized antibody was analyzed using the Octet Data Analysis software (Pall ForteBio). First, a reference subtraction was performed on all recorded traces using the reference well (biosensor that underwent the same steps as experimental wells but no analyte for the Association step), then all the traces were aligned to the beginning of the Association step.
The target in experiment [12] is T3, human IL1RAP (hu-IL1RAP) on human cells. Put plainly: cell-based or functional assay. This is another data set of the same source.

B1: h11C5 variant K13/H3 IgG (YIS) (antibody)
heavy: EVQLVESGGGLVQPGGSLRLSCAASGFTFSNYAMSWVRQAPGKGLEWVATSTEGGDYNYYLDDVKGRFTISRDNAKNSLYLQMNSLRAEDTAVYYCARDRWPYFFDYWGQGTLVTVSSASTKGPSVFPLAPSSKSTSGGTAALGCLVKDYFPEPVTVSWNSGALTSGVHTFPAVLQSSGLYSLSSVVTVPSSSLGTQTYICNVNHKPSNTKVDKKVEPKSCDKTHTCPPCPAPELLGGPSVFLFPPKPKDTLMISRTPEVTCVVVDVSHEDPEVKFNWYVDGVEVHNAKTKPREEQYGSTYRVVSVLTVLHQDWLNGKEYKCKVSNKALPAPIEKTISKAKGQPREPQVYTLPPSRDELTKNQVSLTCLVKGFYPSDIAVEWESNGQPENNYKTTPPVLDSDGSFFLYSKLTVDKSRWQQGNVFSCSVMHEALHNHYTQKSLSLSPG
light: DIQMTQSPSSLSASVGDRVTITCRASENIYSNLAWYQQKPGKSPKLLVYGYKNLADGVPSRFSGSGSGTDYTLTISSLQPEDFATYYCQHFITTPRTFGGGTKVEIKRTVAAPSVFIFPPSDEQLKSGTASVVCLLNNFYPREAKVQWKVDNALQSGNSQESVTEQDSKDSTYSLSSTLTLSKADYEKHKVYACEVTHQGLSSPVTKSFNRGEC
notes: Human IgG1 N297G; also called 11C5-YIS
In the case of B1, in [1], the “KD (6)/KD (7.4)” value was determined as 3.3 ratio, the “KD (7.4) ratio to YIS” value came to 1 ratio and the “koff (6) ratio to YIS” value stood at 1 ratio. Besides, in [2], the “KD (6)/KD (7.4)” value came out at 2.5 ratio, the “KD (7.4) ratio to YIS” value is 1 ratio and the “koff (6) ratio to YIS” value came to 1 ratio. In [3], the “HEK-Blue, IL-1β, % inhibition at 100 nM (IgG)” value (“HEK-Blue, IL-1β, % inhibition” for short) came out at 100%; the “HEK-Blue, IL-1β, IC50 (IgG)” value came to 0.251 nM; the “HEK-Blue, IL-33, % inhibition at 100 nM (IgG)” value (from here on “HEK-Blue, IL-33, % inhibition”) stood at 98%; the “HEK-Blue, IL-33, IC50 (IgG)” value was found to be 0.425 nM. Besides, in experiment [3], the “HEK-Blue, IL-36α, % inhibition at 100 nM (IgG)” value (from here on “HEK-Blue, IL-36α, % inhibition”) came to 100% and the “HEK-Blue, IL-36α, IC50 (IgG)” value came out at 0.232 nM. For the same molecule, in [4], the Kd amounted to 0.0705 nM; the koff (as a rule, a measure of how fast the partners let go of each other) is 0.00015 s⁻¹; the kon (in general, the rate constant with which the complex forms) turned out to be 2.12e+06 M⁻¹ s⁻¹. Besides, in experiment [5], the Kd is 0.0345 nM, the off-rate (koff) was 6.94e-05 s⁻¹ and the kon worked out at 2.01e+06 M⁻¹ s⁻¹. In [6], the Kd was found to be 0.0213 nM, the off-rate (koff) is 3.94e-05 s⁻¹ and the kon is 1.85e+06 M⁻¹ s⁻¹. In addition, in experiment [7], the Kd was found to be 0.014 nM, the off-rate (koff) worked out at 3e-05 s⁻¹ and the on-rate constant (kon) came out at 2.14e+06 M⁻¹ s⁻¹. In addition, in [8], the Kd stood at 0.013 nM, the koff was 3.33e-05 s⁻¹ and the on-rate (kon) amounted to 2.55e+06 M⁻¹ s⁻¹. Also, in experiment [9], the Kd is 0.0116 nM, the off-rate constant (koff) is 3.34e-05 s⁻¹ and the kon stood at 2.87e+06 M⁻¹ s⁻¹.

B2: h11C5 variant K13/H2 IgG (YID) (antibody, V domains shown)
VH: EVQLVESGGGLVQPGGSLRLSCAASGFTFSNYAMSWVRQAPGKGLEWVATVTEGGDYNYYLDDVKGRFTISRDNAKNSLYLQMNSLRAEDTAVYYCARDDWPYFFDYWGQGTLVTVSS
VL: DIQMTQSPSSLSASVGDRVTITCRASENIYSNLAWYQQKPGKSPKLLVYGYKNLADGVPSRFSGSGSGTDYTLTISSLQPEDFATYYCQHFITTPRTFGGGTKVEIKR
notes: Human IgG1 N297G; also called 11C5-YID
For B2, in experiment [1], the “KD (6)/KD (7.4)” value stood at 10 ratio, the “KD (7.4) ratio to YIS” value is 0.66 ratio and the “koff (6) ratio to YIS” value is 2.8 ratio. In [2], the “KD (6)/KD (7.4)” value was 4.1 ratio, the “KD (7.4) ratio to YIS” value came to 1.7 ratio and the “koff (6) ratio to YIS” value is 3 ratio. Also, in experiment [3], the “HEK-Blue, IL-1β, % inhibition” value worked out at 100%; the “HEK-Blue, IL-1β, IC50 (IgG)” value is 0.361 nM; the “HEK-Blue, IL-33, % inhibition” value came to 99%; the “HEK-Blue, IL-33, IC50 (IgG)” value turned out to be 1.52 nM. In addition, in experiment [3], the “HEK-Blue, IL-36α, % inhibition” value amounted to 100% and the “HEK-Blue, IL-36α, IC50 (IgG)” value is 0.477 nM. In experiment [4], the Kd amounted to 0.141 nM, the koff is 0.000414 s⁻¹ and the kon is 2.94e+06 M⁻¹ s⁻¹. Besides, in experiment [5], the Kd amounted to 0.0993 nM, the dissociation rate constant (koff) turned out to be 0.000215 s⁻¹ and the kon was determined as 2.16e+06 M⁻¹ s⁻¹. Moreover, in experiment [6], the Kd turned out to be 0.014 nM, the koff was 2.69e-05 s⁻¹ and the on-rate (kon) amounted to 1.93e+06 M⁻¹ s⁻¹. Further, in [7], the Kd worked out at 0.0244 nM, the koff is 4.62e-05 s⁻¹ and the kon was 1.89e+06 M⁻¹ s⁻¹.

B3: h11C5 variant K17/H3 IgG (YKS) (antibody, V domains shown)
VH: EVQLVESGGGLVQPGGSLRLSCAASGFTFSNYAMSWVRQAPGKGLEWVATSTEGGDYNYYLDDVKGRFTISRDNAKNSLYLQMNSLRAEDTAVYYCARDRWPYFFDYWGQGTLVTVSS
VL: DIQMTQSPSSLSASVGDRVTITCRASENIYSNLAWYQQKPGKSPKLLVYGYKNLADGVPSRFSGSGSGTDYTLTISSLQPEDFATYYCQHFKTTPRTFGGGTKVEIKR
notes: Human IgG1 N297G; also called 11C5-YKS
Take B3: in experiment [1], the “KD (6)/KD (7.4)” value was found to be 4.3 ratio, the “KD (7.4) ratio to YIS” value was 1.1 ratio and the “koff (6) ratio to YIS” value came out at 1.2 ratio. For the same molecule, in [2], the “KD (6)/KD (7.4)” value is 4.6 ratio, the “KD (7.4) ratio to YIS” value was 1.6 ratio and the “koff (6) ratio to YIS” value came out at 1.7 ratio. In experiment [3], the “HEK-Blue, IL-1β, % inhibition” value stood at 100%; the “HEK-Blue, IL-1β, IC50 (IgG)” value was 0.429 nM; the “HEK-Blue, IL-33, % inhibition” value was 87%; the “HEK-Blue, IL-33, IC50 (IgG)” value worked out at 2.5 nM. Moreover, in [3], the “HEK-Blue, IL-36α, % inhibition” value worked out at 96% and the “HEK-Blue, IL-36α, IC50 (IgG)” value came out at 0.418 nM. For the same molecule, in experiment [4], the Kd is 0.0962 nM, the koff was determined as 0.000182 s⁻¹ and the association rate constant (kon) was determined as 1.9e+06 M⁻¹ s⁻¹. In experiment [5], the Kd stood at 0.101 nM, the off-rate (koff) amounted to 0.000121 s⁻¹ and the kon amounted to 1.2e+06 M⁻¹ s⁻¹. Besides, in experiment [6], the Kd turned out to be 0.0226 nM, the off-rate constant (koff) was found to be 3.87e-05 s⁻¹ and the association rate constant (kon) is 1.71e+06 M⁻¹ s⁻¹. In addition, in [7], the Kd is 0.0221 nM, the koff was determined as 4.51e-05 s⁻¹ and the on-rate constant (kon) turned out to be 2.04e+06 M⁻¹ s⁻¹.

B4: c11C5_C59Y (C59Y variant of c11C5) (antibody, IgG1, V domains shown)
VH: EVQLVESGGGLVKPGGSLKLSCAASGFTFSNYAMSWVRQTPEKRLEWVATVTEGGDYNYYLDDVKGRFTISRDNANDNLYLQMSHLKSEDSARYYCARDRWPYFFDYWGQGTTLTVSS
VL: DIQMTQSPASLSVSVGETVTITCRASENIYSNLAWYQQKQGRSPQLLVYGAKNLADGVPSRFSGSGSGTQYSLNINSLQSEDFGTYYCQHFWTTPRTFGGGTKLEIK
notes: Murine VL and VH, human CL and IgG1 CH1-CH3 domains with effectorless N297G
Take B4: in experiment [10], the “NK cells, IL-33+IL-12 stimulated IFN-γ, IC50” value was 2.9 nM; the “PHLF, IL-1α stimulated IL-8, IC50” value stood at 3.96 nM; the “PHLF, IL-36β stimulated IL-8, IC50” value was found to be 0.284 nM; the “monocytes, IL-1β stimulated IL-6, IC50” value is 0.733 nM. This molecule came in with a Kd in experiment [11] of 0.446 nM.

B5: m11C5 (recombinant murine 11C5) (antibody, mouse IgG2a, V domains shown)
VH: EVQLVESGGGLVKPGGSLKLSCAASGFTFSNYAMSWVRQTPEKRLEWVATVTEGGDYNYCLDDVKGRFTISRDNANDNLYLQMSHLKSEDSARYYCARDRWPYFFDYWGQGTTLTVSS
VL: DIQMTQSPASLSVSVGETVTITCRASENIYSNLAWYQQKQGRSPQLLVYGAKNLADGVPSRFSGSGSGTQYSLNINSLQSEDFGTYYCQHFWTTPRTFGGGTKLEIK
notes: Murine IgG2a constant domains
As to B5, in experiment [12], the “HEK-Blue, IL-1β, IC50” value was 0.705 nM and the “HEK-Blue, IL-33, IC50” value was determined as 2.25 nM. In addition, the Kd in experiment [11] stood at 0.37 nM.
